Substitutions are numbered along the chain they refer to.
B1: PRT-361 (protein)
chain: MSQTEDSESLQRLRDIEDFQAEKKKQNVVYTKWLDGVDVKDHDFRKIVDGNSAYYATPLLNGRGFYDINKDFNRDSDKCAAAVAANMFHYWLDRNRDNVDRFLRQNPEKHGIIELPDGQLKLSDFLNTYESDDGYRDKSKLFDFISENFNGPVWTDKLLDNYINGYAYNYKYGRTIEDPTKNTSKINFFKEVFNEKILTNNHSIRNQNEFSVLLIEALYTGKAIGLSYGPAGLRHSLGHIISVWGADLDADGNVVAIYVTDSDDKKLTIGDERVGLKRYKISTDDEGRLRLTAYEETHNTGGQIRGLWTLDTGKQAWADYFDKTEQTGTDQAEQ
B2: PRT-346 (protein)
chain: B1 chain with K24E, K25M, R94I, D133H, E147N, I215S, G287N, I304V, Q315Y
B3: PRT-349 (protein)
chain: B1 chain with K25D, S52I, F65L, R94I, D133H, F210L, I215S, G287N, I304V, Q315Y
B4: PRT-355 (protein)
chain: B1 chain with K25M, S52E, R94I, D133H, T175L, F210L, I215S, L233T, G287N, Q315Y
B5: PRT-374 (protein)
chain: B1 chain with S52E, S76N, P179S, F210L, I215S
B6: PRT-347 (protein)
chain: B1 chain with K24E, K25M, F65W, R94I, D133H, E147N, I215S, G287N, I304V, Q315Y
B7: PRT-371 (protein)
chain: B1 chain with S76N, P179S
B8: PRT-363 (protein)
chain: B1 chain with K24E, F65W, Y170S, S236G, I304V
B9: PRT-370 (protein)
chain: B1 chain with K25D, F65W, S76N, P179S, I304V
B10: PRT-364 (protein)
chain: B1 chain with S52E, F210L, I215S
B11: PRT-356 (protein)
chain: B1 chain with K24E, E147N, I215S, I304V
B12: PRT-362 (protein)
chain: B1 chain with Y170S, S236G
B13: PRT-354 (protein)
chain: B1 chain with K25M, S52E, R94I, D133H, F210L, I215S, G287N, Q315Y
B14: PRT-369 (protein)
chain: B1 chain with K25D, S52I, F65L, S76N, P179S, F210L, I215S, I304V
B15: PRT-348 (protein)
chain: B1 chain with K25D, S52I, F65W, R94I, D133H, G287N, I304V, Q315Y
B16: PRT-338 (protein)
chain: MTITSVWTKGVTPPTPEDFRENNEDVLHAPYLANQGWYDITKAFDGKDNLLCGAATAGNMLHWWFDQNKEEIERYLKKHPEKQKIIFNNQELFDVKAAIDTKDSQTNSKLFNYFRDKAFPNLSARQLGVMPDLVLDMFINGYYLNLGKTQSTDVNRPYQDKDKRGGIFDAVFTRGDQTTLLTARHDLKNKGLNEISDLIKQELTEGKALALSHTYANVSINHVINLWGADFDAEGNLEAIYVTDSDANASIGMKKYFVGRNAHGKVAISAKKIEGDNIGAQVLGLFTLSLGQDIWQKLS
B17: PRT-340 (protein)
chain: B16 chain with N112D, L290T, I294Q
B18: PRT-339 (protein)
chain: B16 chain with N88G, N112D, L290T, I294Q
B19: PRT-341 (protein)
chain: B16 chain with L92W, G147P, F257A, R260V, L290T

Target: pooled human IgG (human IgG1,2,3 and 4)

Row | Protein | Enzyme Activity Endpoint Assay (purified): Fab′2 | Enzyme Activity Endpoint Assay (purified): Fc | Enzyme Activity Endpoint Assay (purified): IgG | Enzyme Activity Endpoint Assay (purified): scIgG
1 | B1 | 86 ng/µL | 243 ng/µL | 130 ng/µL | 753 ng/µL
2 | B2 | 607 ng/µL | 217 ng/µL | 0 ng/µL | 246 ng/µL
3 | B3 | 677 ng/µL | 215 ng/µL | 0 ng/µL | 286 ng/µL
4 | B4 | 952 ng/µL | 500 ng/µL | 0 ng/µL | 367 ng/µL
5 | B5 | 985 ng/µL | 536 ng/µL | 0 ng/µL | 379 ng/µL
6 | B6 | 769 ng/µL | 397 ng/µL | 0 ng/µL | 309 ng/µL
7 | B7 | 623 ng/µL | 373 ng/µL | 0 ng/µL | 295 ng/µL
8 | B8 | 838 ng/µL | 462 ng/µL | 0 ng/µL | 354 ng/µL
9 | B9 | 654 ng/µL | 348 ng/µL | 0 ng/µL | 288 ng/µL
10 | B10 | 863 ng/µL | 439 ng/µL | 0 ng/µL | 334 ng/µL
11 | B11 | 780 ng/µL | 418 ng/µL | 0 ng/µL | 289 ng/µL
12 | B12 | 720 ng/µL | 225 ng/µL | 0 ng/µL | 299 ng/µL
13 | B13 | 618 ng/µL | 213 ng/µL | 0 ng/µL | 233 ng/µL
14 | B14 | 259 ng/µL | 284 ng/µL | 123 ng/µL | 445 ng/µL
15 | B15 | 736 ng/µL | 415 ng/µL | 0 ng/µL | 325 ng/µL
16 | B16 | 766 ng/µL | 203 ng/µL | 0 ng/µL | 287 ng/µL
17 | B17 | 692 ng/µL | 374 ng/µL | 0 ng/µL | 307 ng/µL
18 | B18 | 721 ng/µL | 167 ng/µL | 0 ng/µL | 288 ng/µL
19 | B19 | 832 ng/µL | 199 ng/µL | 0 ng/µL | 318 ng/µL
